Assay results as given in patent US20240327497A1.
Values joined by “and” are separate entries in the source; they are usually repeats but may differ in a detail not shown here. Equal values may be shown once.

Key:
[1] = target: canine FcRn (FcRn large subunit with canine beta-2-microglobulin) (canine); assay: SPR pH 5.5, SASA-Fc captured on BSA, FcRn 100-800 nM
[2] = target: canine FcRn (FcRn large subunit with canine beta-2-microglobulin) (canine); assay: SPR pH 5.5, SASA-Fc captured on BSA, FcRn 200 nM
[3] = target: canine FcRn (FcRn large subunit with canine beta-2-microglobulin) (canine); assay: SPR pH 5.5, SASA-Fc captured on BSA, FcRn 200 nM; remark: listed apart in the source
[4] = target: canine FcRn (FcRn large subunit with canine beta-2-microglobulin) (canine); assay: SPR pH 5.5, SASA-Fc captured on BSA, FcRn 200 nM; remark: listed apart in the source
[5] = target: canine FcRn (FcRn large subunit with canine beta-2-microglobulin) (canine); assay: SPR pH 5.5, SASA-Fc captured on BSA, FcRn 200 nM; remark: listed apart in the source
[6] = target: canine FcRn (FcRn large subunit with canine beta-2-microglobulin) (canine); assay: SPR pH 6.0, IgG coupled to CM5, FcRn 200-3200 nM

| Binder | Kd [1] | koff [1] | kon [1] | Kd [2] | koff [2] | kon [2] | other results |
| --- | --- | --- | --- | --- | --- | --- | --- |
| canine IgGB Fc (CH2-CH3) A426H with N-terminal SASA tag (Fc fusion, part only; not given: SASA tag, not shown: another chain or arm of the molecule; small tags and cut ends) Fc: APEMLGGPSVFIFPPKPKDTLLIARTPEVTCVVVDLDPEDPEVQISWFVDGKQMQTAKTQPREEQFNGTYRVVSVLPIGHQDWLKGKQFTCKVNNKALPSPIERTISKARGQAHQPSVYVLPPSREELSKNTVSLTCLIKDFFPPDIDVEWQSNGQQEPESKYRTTPPQLDEDGSYFLYSKLSVDKSRWQRGDTFICHVMHEALHNHYTQESLSHSPGK | 343 nM | 0.106 s⁻¹ | 308000 M⁻¹ s⁻¹ | 160 nM and 153 nM | 0.135 s⁻¹ and 0.14 s⁻¹ | 843000 M⁻¹ s⁻¹ and 915000 M⁻¹ s⁻¹ |  |
| canine IgGB Fc (CH2-CH3) L252Y with N-terminal SASA tag (Fc fusion, part only; not given: SASA tag, not shown: another chain or arm of the molecule; small tags and cut ends) Fc: APEMLGGPSVFIFPPKPKDTLYIARTPEVTCVVVDLDPEDPEVQISWFVDGKQMQTAKTQPREEQFNGTYRVVSVLPIGHQDWLKGKQFTCKVNNKALPSPIERTISKARGQAHQPSVYVLPPSREELSKNTVSLTCLIKDFFPPDIDVEWQSNGQQEPESKYRTTPPQLDEDGSYFLYSKLSVDKSRWQRGDTFICAVMHEALHNHYTQESLSHSPGK | 173 nM | 0.0476 s⁻¹ | 275000 M⁻¹ s⁻¹ |  |  |  | Kd [3]: 98.7 nM and 114 nM; koff [3]: 0.0397 s⁻¹ and 0.041 s⁻¹; kon [3]: 402000 M⁻¹ s⁻¹ and 358000 M⁻¹ s⁻¹ |
| canine IgGB Fc (CH2-CH3) L252M with N-terminal SASA tag (Fc fusion, part only; not given: SASA tag, not shown: another chain or arm of the molecule; small tags and cut ends) Fc: APEMLGGPSVFIFPPKPKDTLMIARTPEVTCVVVDLDPEDPEVQISWFVDGKQMQTAKTQPREEQFNGTYRVVSVLPIGHQDWLKGKQFTCKVNNKALPSPIERTISKARGQAHQPSVYVLPPSREELSKNTVSLTCLIKDFFPPDIDVEWQSNGQQEPESKYRTTPPQLDEDGSYFLYSKLSVDKSRWQRGDTFICAVMHEALHNHYTQESLSHSPGK |  |  |  |  |  |  | Kd [3]: 869 nM and 774 nM; koff [3]: 0.168 s⁻¹ and 0.169 s⁻¹; kon [3]: 193000 M⁻¹ s⁻¹ and 218000 M⁻¹ s⁻¹ |
| canine IgGB Fc (CH2-CH3) Q311V with N-terminal SASA tag (Fc fusion, part only; not given: SASA tag, not shown: another chain or arm of the molecule; small tags and cut ends) Fc: APEMLGGPSVFIFPPKPKDTLLIARTPEVTCVVVDLDPEDPEVQISWFVDGKQMQTAKTQPREEQFNGTYRVVSVLPIGHVDWLKGKQFTCKVNNKALPSPIERTISKARGQAHQPSVYVLPPSREELSKNTVSLTCLIKDFFPPDIDVEWQSNGQQEPESKYRTTPPQLDEDGSYFLYSKLSVDKSRWQRGDTFICAVMHEALHNHYTQESLSHSPGK |  |  |  |  |  |  | Kd [4]: 372 nM and 439 nM; koff [4]: 0.566 s⁻¹ and 0.696 s⁻¹; kon [4]: 1.52e+06 M⁻¹ s⁻¹ and 1.59e+06 M⁻¹ s⁻¹ |
| canine IgGB Fc (CH2-CH3) A254T with N-terminal SASA tag (Fc fusion, part only; not given: SASA tag, not shown: another chain or arm of the molecule; small tags and cut ends) Fc: APEMLGGPSVFIFPPKPKDTLLITRTPEVTCVVVDLDPEDPEVQISWFVDGKQMQTAKTQPREEQFNGTYRVVSVLPIGHQDWLKGKQFTCKVNNKALPSPIERTISKARGQAHQPSVYVLPPSREELSKNTVSLTCLIKDFFPPDIDVEWQSNGQQEPESKYRTTPPQLDEDGSYFLYSKLSVDKSRWQRGDTFICAVMHEALHNHYTQESLSHSPGK |  |  |  |  |  |  | Kd [5]: 2290 nM and 1340 nM; koff [5]: 0.375 s⁻¹ and 0.433 s⁻¹; kon [5]: 163000 M⁻¹ s⁻¹ and 323000 M⁻¹ s⁻¹ |
| anti-NGF canine IgGB antibody, Fc variant A426H + N434R (antibody, part only; not given: Anti-NGF variable domains, not shown: another chain or arm of the molecule; small tags and cut ends) Fc: APEMLGGPSVFIFPPKPKDTLLIARTPEVTCVVVDLDPEDPEVQISWFVDGKQMQTAKTQPREEQFNGTYRVVSVLPIGHQDWLKGKQFTCKVNNKALPSPIERTISKARGQAHQPSVYVLPPSREELSKNTVSLTCLIKDFFPPDIDVEWQSNGQQEPESKYRTTPPQLDEDGSYFLYSKLSVDKSRWQRGDTFICHVMHEALHRHYTQESLSHSPGK |  |  |  |  |  |  | Kd [6]: 2480 nM; koff [6]: 0.264 s⁻¹; kon [6]: 107000 M⁻¹ s⁻¹ |
| canine IgGB Fc (CH2-CH3) A426F with N-terminal SASA tag (Fc fusion, part only; not given: SASA tag, not shown: another chain or arm of the molecule; small tags and cut ends) Fc: APEMLGGPSVFIFPPKPKDTLLIARTPEVTCVVVDLDPEDPEVQISWFVDGKQMQTAKTQPREEQFNGTYRVVSVLPIGHQDWLKGKQFTCKVNNKALPSPIERTISKARGQAHQPSVYVLPPSREELSKNTVSLTCLIKDFFPPDIDVEWQSNGQQEPESKYRTTPPQLDEDGSYFLYSKLSVDKSRWQRGDTFICFVMHEALHNHYTQESLSHSPGK | 522 nM | 0.132 s⁻¹ | 253000 M⁻¹ s⁻¹ | 182 nM and 181 nM | 0.143 s⁻¹ and 0.147 s⁻¹ | 786000 M⁻¹ s⁻¹ and 811000 M⁻¹ s⁻¹ |  |
| canine IgGB Fc (CH2-CH3) A426Y with N-terminal SASA tag (Fc fusion, part only; not given: SASA tag, not shown: another chain or arm of the molecule; small tags and cut ends) Fc: APEMLGGPSVFIFPPKPKDTLLIARTPEVTCVVVDLDPEDPEVQISWFVDGKQMQTAKTQPREEQFNGTYRVVSVLPIGHQDWLKGKQFTCKVNNKALPSPIERTISKARGQAHQPSVYVLPPSREELSKNTVSLTCLIKDFFPPDIDVEWQSNGQQEPESKYRTTPPQLDEDGSYFLYSKLSVDKSRWQRGDTFICYVMHEALHNHYTQESLSHSPGK | 389 nM | 0.102 s⁻¹ | 262000 M⁻¹ s⁻¹ | 146 nM and 143 nM | 0.109 s⁻¹ and 0.112 s⁻¹ | 750000 M⁻¹ s⁻¹ and 785000 M⁻¹ s⁻¹ |  |
